# From US7144731B2, “SCF antibody compositions and methods of using the same” (Amgen Inc., priority 1989, dated 2006)
# B1: rrSCF^1-164: recombinant rat SCF^1-164 from E. coli, also used ^125I-labelled (protein)
# chain: QEICRNPVTDNVKDITKLVANLPNDYMITLNYVAGMDVLPSHCWLRDMVTHLSVSLTTLLDKFSNISEGLSNYSIIDKLGKIVDDLVACMEENAPKNVKESLKKPETRNFTPEEFFSIFNRSIDAFKDFMVASDTSDCVLSSTLGPEKDSRVSVTKPFMLPPVA
# Assays:
# [1] = tested on: COS-1 cells (endogenous c-kit); test: ^125I-SCF^1-164 binding to COS-1 cells transfected with V19.8 alone
# Text: To test whether SCF^1-164 is the ligand for c-kit, the cDNA for the entire murine c-kit [Qiu et al., EMBO J., 7, 1003–1011 (1988)] was amplified using PCR from the SCF^1-164 responsive mast cell line MC/9 [Nabel et al., Nature, 291, 332–334 (1981)] with primers designed from the published sequence. The ligand binding and transmembrane domains of human c-kit, encoded by amino acids 1–549 [Yarden et al., EMBO J., 6, 3341–3351 (1987)], were cloned using similar techniques from the human erythroleukemia cell line, HEL [Martin and Papayannopoulou, Science, 216, 1233–1235 (1982)]. The c-kit cDNAs were inserted into the mammalian expression vector V19.8 transfected into COS-1 cells, and membrane fractions prepared for binding assays using either rat or human ^125I-SCF^1-164 according to the methods described in Sections B and C below. […] There was no detectable specific binding of ^125I human SCF^1-164 to COS-1 cells transfected with V19.8 alone. However, COS-1 cells expressing human recombinant c-kit ligand binding plus transmembrane domains (hckit-LT1) did bind ^125I-hSCF^1-164 (Table 17). The addition of a 200 fold molar excess of unlabelled human SCF^1-164 reduced binding to background levels. […]
# Two days after transfection, the COS-1 cells were scraped from the dish, washed in PBS, and frozen until use. […] The pellets were clipped off and membrane associated ^125I-SCF^1-164 was quantitated.
# murine c-kit (mckit-L1) = target: T1, murine c-kit (mckit-L1) (Mus musculus, UniProt P05532); test: ^125I-SCF^1-164 binding to recombinant c-kit in COS-1 cells
# T1 construct: expressed in transfected cells; host or cells: COS-1 cells transfected with V19.8 carrying c-kit cDNA cloned from MC/9 mast cells; membrane fractions used
# Text: (§1) To test whether SCF^1-164 is the ligand for c-kit, the cDNA for the entire murine c-kit [Qiu et al., EMBO J., 7, 1003–1011 (1988)] was amplified using PCR from the SCF^1-164 responsive mast cell line MC/9 [Nabel et al., Nature, 291, 332–334 (1981)] with primers designed from the published sequence. The ligand binding and transmembrane domains of human c-kit, encoded by amino acids 1–549 [Yarden et al., EMBO J., 6, 3341–3351 (1987)], were cloned using similar techniques from the human erythroleukemia cell line, HEL [Martin and Papayannopoulou, Science, 216, 1233–1235 (1982)]. The c-kit cDNAs were inserted into the mammalian expression vector V19.8 transfected into COS-1 cells, and membrane fractions prepared for binding assays using either rat or human ^125I-SCF^1-164 according to the methods described in Sections B and C below. […] There was no detectable specific binding of ^125I human SCF^1-164 to COS-1 cells transfected with V19.8 alone. However, COS-1 cells expressing human recombinant c-kit ligand binding plus transmembrane domains (hckit-LT1) did bind ^125I-hSCF^1-164 (Table 17). The addition of a 200 fold molar excess of unlabelled human SCF^1-164 reduced binding to background levels. Similarly, COS-1 cells transfected with the full length murine c-kit (mckit-L1) bound rat ^125I-SCF^1-164. […] This finding is in accord with the broad cellular distribution of c-kit expression. Rat ^125I-SCF^1-164 binds similarly to both human and murine c-kit, while human ^125I-SCF^1-164 bind with lower activity to murine c-kit (Table 17).
# (§2) Human and murine c-kit cDNA clones were derived using PCR techniques [Saiki et al., Science, 239, 487–491 (1988)] from total RNA isolated by an acid phenol/chloroform extraction procedure [Chomczynsky and Sacchi, Anal. Biochem., 162, 156–159, (1987)] from the human erythroleukemia cell line HEL and MC/9 cells, respectively. Unique sequence oligonucleotides were designed from the published human and murine c-kit sequences. First strand cDNA was synthesized from the total RNA according to the protocol provided with the enzyme, Mo-MLV reverse transcription (Bethesda Research Laboratories, Bethesda, Md.), using c-kit antisense oligonucleotides as primers. Amplification of overlapping regions of the c-kit ligand binding and tyrosine kinase domains was accomplished using appropriate pairs of c-kit primers. These regions were cloned into the mammalian expression vector V19.8 (FIG. 17) for expression in COS-1 cells. […] A clone free of these mutations was constructed by reassembly of mutation-free restriction fragments from separate clones. […]
# human c-kit (hckit-LT1) = target: T2, human c-kit (hckit-LT1) (Homo sapiens, UniProt P10721); test: as above
# T2 construct: expressed in transfected cells; host or cells: COS-1 cells transfected with V19.8 carrying c-kit cDNA cloned from HEL cells; membrane fractions used
# Text: as §1, §2
# T1 sequence (P05532 25-979): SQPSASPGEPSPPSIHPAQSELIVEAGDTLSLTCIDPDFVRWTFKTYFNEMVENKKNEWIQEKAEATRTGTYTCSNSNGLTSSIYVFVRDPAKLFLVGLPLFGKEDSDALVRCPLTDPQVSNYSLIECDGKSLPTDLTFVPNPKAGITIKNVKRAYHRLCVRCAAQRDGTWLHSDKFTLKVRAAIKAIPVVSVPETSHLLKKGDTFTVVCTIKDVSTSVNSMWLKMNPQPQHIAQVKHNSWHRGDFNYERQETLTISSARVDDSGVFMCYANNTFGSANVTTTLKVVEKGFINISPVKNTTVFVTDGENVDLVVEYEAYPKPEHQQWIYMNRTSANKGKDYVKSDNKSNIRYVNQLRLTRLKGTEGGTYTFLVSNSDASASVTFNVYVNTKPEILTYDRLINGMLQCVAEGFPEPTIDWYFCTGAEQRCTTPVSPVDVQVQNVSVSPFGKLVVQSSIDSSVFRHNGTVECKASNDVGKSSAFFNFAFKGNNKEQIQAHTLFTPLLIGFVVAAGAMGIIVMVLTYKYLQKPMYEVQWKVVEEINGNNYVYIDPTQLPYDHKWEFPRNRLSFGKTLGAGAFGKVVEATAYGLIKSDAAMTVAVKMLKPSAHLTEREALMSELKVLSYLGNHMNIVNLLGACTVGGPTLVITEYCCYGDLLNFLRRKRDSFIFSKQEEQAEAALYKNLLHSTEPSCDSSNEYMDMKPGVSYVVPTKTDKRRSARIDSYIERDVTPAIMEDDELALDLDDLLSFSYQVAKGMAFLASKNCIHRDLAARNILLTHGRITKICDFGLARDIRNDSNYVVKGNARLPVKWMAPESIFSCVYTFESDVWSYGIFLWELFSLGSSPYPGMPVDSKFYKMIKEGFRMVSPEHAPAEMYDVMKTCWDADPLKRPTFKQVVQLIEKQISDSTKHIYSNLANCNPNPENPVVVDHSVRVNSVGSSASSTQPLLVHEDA
molecule,measurement,setting,value
B1,"CPM Bound, ^125I-SCF + cold","[1]; 1.6 nM ^125I-SCF^1-164 + 320 nM unlabelled SCF^1-164, V19.8",550 CPM
same,"CPM Bound, ^125I-SCF","[1]; 1.6 nM ^125I-SCF^1-164, plasmid V19.8","1,100 CPM"
same,"CPM Bound, ^125I-SCF + cold","murine c-kit (mckit-L1); 1.6 nM ^125I-SCF^1-164 + 320 nM unlabelled SCF^1-164, V19.8:mckit-L1",600 CPM
same,"CPM Bound, ^125I-SCF","murine c-kit (mckit-L1); 1.6 nM ^125I-SCF^1-164, plasmid V19.8:mckit-L1","52,700 CPM"
same,"CPM Bound, ^125I-SCF + cold","human c-kit (hckit-LT1); 1.6 nM ^125I-SCF^1-164 + 320 nM unlabelled SCF^1-164, V19.8:hckit-LT1","1,100 CPM"
same,"CPM Bound, ^125I-SCF","human c-kit (hckit-LT1); 1.6 nM ^125I-SCF^1-164, plasmid V19.8:hckit-LT1","70,000 CPM"
